In PMC2965767, “Identification and Genome-Wide Prediction of DNA Binding Specificities for the ApiAP2 Family of Regulators from the Malaria Parasite”:

Experiments:
[1] = target: T1, PF11_0091 D1 (PF3D7_1107800, AP2 domain transcription factor, putative) (Plasmodium falciparum) (UniProt Q8IIS4); settings: PBM; highest protein concentration obtained; buffer not given; scale: PBM E-score of the seed 8-mer
T1 sequence: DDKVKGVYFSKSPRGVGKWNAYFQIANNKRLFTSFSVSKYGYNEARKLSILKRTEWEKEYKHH

[2] = target: T2, PFF0670w D1 (PF3D7_0613800, AP2 domain transcription factor, putative) (Plasmodium falciparum) (UniProt C6KSY0); settings: PBM; highest protein concentration obtained; buffer not given; scale: PBM E-score of the seed 8-mer
T2 sequence: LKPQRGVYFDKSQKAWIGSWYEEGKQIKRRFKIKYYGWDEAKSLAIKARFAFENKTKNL

[3] = target: T3, MAL8P1.153 D1 (PF3D7_0802100, AP2 domain transcription factor, putative) (Plasmodium falciparum) (UniProt Q8IAM1); settings: PBM; highest protein concentration obtained; buffer not given; scale: PBM E-score of the seed 8-mer
T3 sequence: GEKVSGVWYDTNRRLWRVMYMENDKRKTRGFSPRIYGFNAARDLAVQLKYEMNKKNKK

[4] = target: T4, PF13_0235 D1ext (PF3D7_1342900, AP2 domain transcription factor, putative) (Plasmodium falciparum) (UniProt C0H5G5); settings: PBM; highest protein concentration obtained; buffer not given; scale: PBM E-score of the seed 8-mer
T4 sequence: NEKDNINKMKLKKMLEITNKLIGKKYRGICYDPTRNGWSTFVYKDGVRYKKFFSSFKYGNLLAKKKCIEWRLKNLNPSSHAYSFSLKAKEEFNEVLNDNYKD

[5] = target: T5, PFL1900w D1ext (PF3D7_1239200, AP2 domain transcription factor, putative) (Plasmodium falciparum) (UniProt Q8I531); settings: PBM; highest protein concentration obtained; buffer not given; scale: PBM E-score of the seed 8-mer
T5 sequence: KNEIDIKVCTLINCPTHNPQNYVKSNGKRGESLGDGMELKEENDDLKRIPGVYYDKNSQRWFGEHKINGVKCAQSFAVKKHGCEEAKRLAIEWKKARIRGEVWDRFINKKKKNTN

[6] = target: T6, PFD0985w D1 (ApiAP2) (Plasmodium falciparum) (UniProt Q8I1N6); settings: PBM; highest protein concentration obtained; buffer not given; scale: PBM E-score of the seed 8-mer
T6 sequence: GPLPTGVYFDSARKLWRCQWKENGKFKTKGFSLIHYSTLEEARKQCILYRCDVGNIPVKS

[7] = target: T7, PFE0840c D2 (PF3D7_0516800, AP2 domain transcription factor AP2-O2, putative) (Plasmodium falciparum) (UniProt Q8I3U0); settings: PBM; highest protein concentration obtained; buffer not given; scale: PBM E-score of the seed 8-mer
T7 sequence: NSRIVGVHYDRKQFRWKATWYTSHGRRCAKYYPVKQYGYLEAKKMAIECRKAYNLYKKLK

[8] = target: T8, PF13_0026 D1 (PF3D7_1305200, AP2 domain transcription factor, putative) (Plasmodium falciparum) (UniProt Q8IER4); settings: PBM; highest protein concentration obtained; buffer not given; scale: PBM E-score of the seed 8-mer
T8 sequence: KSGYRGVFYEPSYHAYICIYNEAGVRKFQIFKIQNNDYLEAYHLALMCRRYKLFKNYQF

[9] = target: T9, PF11_0442 D1ext (PF3D7_1143100, AP2 domain transcription factor AP2-O, putative) (Plasmodium falciparum) (UniProt Q8IHT5); settings: PBM; highest protein concentration obtained; buffer not given; scale: PBM E-score of the seed 8-mer
T9 sequence: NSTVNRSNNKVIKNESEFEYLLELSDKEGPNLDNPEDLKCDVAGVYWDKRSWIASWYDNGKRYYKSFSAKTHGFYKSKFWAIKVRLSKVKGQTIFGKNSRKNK

[10] = target: T10, PF07_0126 DLDext (PF3D7_0730300, AP2 domain transcription factor AP2-L, putative) (Plasmodium falciparum) (UniProt Q8IBF6); settings: PBM; highest protein concentration obtained; buffer not given; scale: PBM E-score of the seed 8-mer
T10 sequence: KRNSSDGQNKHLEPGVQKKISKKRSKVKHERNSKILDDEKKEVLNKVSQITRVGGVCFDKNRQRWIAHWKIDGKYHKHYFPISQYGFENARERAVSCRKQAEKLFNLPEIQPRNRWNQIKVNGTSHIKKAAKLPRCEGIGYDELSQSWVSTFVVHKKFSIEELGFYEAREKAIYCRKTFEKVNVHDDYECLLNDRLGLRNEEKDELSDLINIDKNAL

[11] = target: T11, PF10_0075 D2ext (PF3D7_1007700, AP2 domain transcription factor AP2-I) (Plasmodium falciparum) (UniProt Q8IJW6); settings: PBM; highest protein concentration obtained; buffer not given; scale: PBM E-score of the seed 8-mer
T11 sequence: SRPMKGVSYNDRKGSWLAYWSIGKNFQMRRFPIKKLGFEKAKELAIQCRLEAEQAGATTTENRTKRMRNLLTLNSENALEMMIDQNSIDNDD

[12] = target: T12, PF14_0079 D1 (PF3D7_1408200, AP2 domain transcription factor AP2-G2, putative) (Plasmodium falciparum) (UniProt Q8IM14); settings: PBM; highest protein concentration obtained; buffer not given; scale: PBM E-score of the seed 8-mer
T12 sequence: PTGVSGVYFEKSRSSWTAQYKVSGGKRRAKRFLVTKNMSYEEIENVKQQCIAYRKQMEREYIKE

[13] = target: T13, PFF0200c DLD (PF3D7_0604100, AP2 domain transcription factor) (Plasmodium falciparum) (UniProt C6KSN9); settings: PBM; highest protein concentration obtained; buffer not given; scale: PBM E-score of the seed 8-mer
T13 sequence: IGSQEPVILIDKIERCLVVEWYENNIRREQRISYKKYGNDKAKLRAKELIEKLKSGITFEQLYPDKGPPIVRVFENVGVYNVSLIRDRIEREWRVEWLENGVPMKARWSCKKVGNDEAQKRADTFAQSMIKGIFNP

[14] = target: T14, PF13_0235 D1ext (PF3D7_1342900, AP2 domain transcription factor, putative) (Plasmodium falciparum, UniProt C0H5G5 2339-2440); test: EMSA; 5 mM MgCl2 with 10 mM EDTA; LightShift buffer, 2.5% glycerol, 50 mM KCl, 0.05% NP-40, 50 ng/uL poly(dI-dC); room temperature, 20 min; settings: tags: N-terminal GST (pGEX-4T1), kept; label: 5' biotin
T14 sequence: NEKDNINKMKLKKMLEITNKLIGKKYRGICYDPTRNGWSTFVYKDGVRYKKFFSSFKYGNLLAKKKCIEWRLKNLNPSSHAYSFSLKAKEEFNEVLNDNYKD

[15] = target: T15, PFD0985w_D2 (AP2 domain 2) (Plasmodium falciparum, UniProt Q8I1N6 3268-3321); test: EMSA; poly(dI-dC); LightShift EMSA buffer, 2.5% glycerol, 5 mM MgCl2, 10 mM EDTA, 50 mM KCl, 0.05% NP-40, 50 ng/uL poly(dI-dC), 10 fmol biotin probe, 50 or 250x competitor, room temperature 20 min; settings: protein: recombinant; tags: N-terminal GST (pGEX-4T1); label: 5' biotin (probe); blunt
T15 sequence: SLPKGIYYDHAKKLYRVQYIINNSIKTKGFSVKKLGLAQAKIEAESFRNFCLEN

[16] = target: T15, PFD0985w_D2 (AP2 domain 2); test: EMSA; poly(dI-dC); bound equally well as primary motif; LightShift EMSA buffer, 2.5% glycerol, 5 mM MgCl2, 10 mM EDTA, 50 mM KCl, 0.05% NP-40, 50 ng/uL poly(dI-dC), 10 fmol biotin probe, 50 or 250x competitor, room temperature 20 min; settings: protein: recombinant; tags: N-terminal GST (pGEX-4T1); label: 5' biotin (probe); blunt
[17] = target: T16, PFL1900w DLD (PF3D7_1239200, AP2 domain transcription factor, putative) (Plasmodium falciparum, UniProt Q8I531 2149-2347); test: EMSA; 5 mM MgCl2 with 10 mM EDTA; LightShift buffer, 2.5% glycerol, 50 mM KCl, 0.05% NP-40, 50 ng/uL poly(dI-dC); room temperature, 20 min; settings: tags: N-terminal GST (pGEX-4T1), kept; label: 5' biotin
T16 sequence: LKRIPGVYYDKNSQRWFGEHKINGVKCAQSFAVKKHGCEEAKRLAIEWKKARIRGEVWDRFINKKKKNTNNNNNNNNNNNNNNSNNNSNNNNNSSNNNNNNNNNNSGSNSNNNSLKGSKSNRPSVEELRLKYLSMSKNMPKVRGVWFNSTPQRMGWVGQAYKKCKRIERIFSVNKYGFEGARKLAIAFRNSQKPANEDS

[18] = target: T17, PF13_0267 D1 (PF3D7_1350900, AP2 domain transcription factor AP2-O4, putative) (Plasmodium falciparum, UniProt A0A5K1K8Z4 400-521); test: as above; settings: tags: N-terminal GST (pGEX-4T1), kept; label: 5' biotin
T17 sequence: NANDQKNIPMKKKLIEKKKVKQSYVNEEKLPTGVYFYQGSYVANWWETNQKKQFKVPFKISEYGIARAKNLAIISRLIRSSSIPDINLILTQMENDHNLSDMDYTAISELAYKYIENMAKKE

[19] = target: PF11_0091 D1 (PF3D7_1107800, AP2 domain transcription factor, putative) (Plasmodium falciparum, UniProt Q8IIS4 1486-1548); test: as above; settings: tags: N-terminal GST (pGEX-4T1), kept; label: 5' biotin

Molecule: AGCATAC (double strand) [PF11_0091 primary motif]
- binding signal [1]: 0.472

Molecule: WTAAGCC (double strand) [PFF0670w_D1 primary motif]
- binding signal [2]: 0.465

Molecule: CACACACA (double strand) [MAL8P1.153 primary motif]
- binding signal [3]: 0.477

Molecule: AWGGKMCC / GGKMCCWT [PF13_0235_D1 Secondary motif 1]
- binding signal [4]: > 0.45

Molecule: TTCTACA (double strand) [PFL1900w_D1 primary motif]
- binding signal [5]: 0.46

Molecule: GTGTGTG (double strand) [PFD0985w_D1 primary motif]
- binding signal [6]: 0.497

Molecule: TGACATCA (double strand) [PFE0840c_D2 primary motif]
- binding signal [7]: 0.472

Molecule: GCCCCGC (double strand) [PF13_0235_D1 primary motif]
- binding signal [4]: 0.494

Molecule: TGCACACAC (double strand) [PF13_0026 primary motif]
- binding signal [8]: 0.495

Molecule: AGCTAGCT (double strand) [PF11_0442 primary motif]
- binding signal [9]: 0.478

Molecule: AATTTCC (double strand) [PF07_0126_DLD primary motif]
- binding signal [10]: 0.467

Molecule: TCTTGCC (double strand) [PF10_0075_D2 primary motif]
- binding signal [11]: 0.468

Molecule: TGCNACCA (double strand) [PF14_0079 primary motif]
- binding signal [12]: 0.487

Molecule: GTGCAC (double strand) [PFF0200c_DLD primary motif]
- binding signal [13]: 0.481

B1: hsp86-MUT3 (dsDNA)
DNA 1: TTTTAAAAAAAAAAAAAAAGTATAGCGGAAATATACCATTGGATATATATTTAGTATTCC
DNA 2: GGAATACTAAATATATATCCAATGGTATATTTCCGCTATACTTTTTTTTTTTTTTTAAAA
- binding result [14]: no binding

B2: PFD0985w_D2-1° (dsDNA)
DNA 1: AATATTATAATAGTCGTAGCCATCAATGTGTAACACATGGTAATATAGATTTTCGTTTATATT
DNA 2: AATATAAACGAAAATCTATATTACCATGTGTTACACATTGATGGCTACGACTATTATAATATT
- binding result [15]: binds

B3: PFD0985w_D2-2° (dsDNA)
DNA 1: AATATTATAATAGTCGTAGCCATCAATCCACACACCATGGTAATATAGATTTTCGTTTATATT
DNA 2: AATATAAACGAAAATCTATATTACCATGGTGTGTGGATTGATGGCTACGACTATTATAATATT
- binding result [16]: binds

B4: PFL1900w_DLD-1 (motif rank) (dsDNA)
DNA 1: AATATTATAATAGTCGTAGCCATCAATTCTACAAAATGGTAATATAGATTTTCGTTTATATT
DNA 2: AATATAAACGAAAATCTATATTACCATTTTGTAGAATTGATGGCTACGACTATTATAATATT
- binding result [17]: binds

B5: PFL1900w_DLD-2 (motif rank) (dsDNA)
DNA 1: AATATTATAATAGTCGTAGCCATCAATACGACATCATGGTAATATAGATTTTCGTTTATATT
DNA 2: AATATAAACGAAAATCTATATTACCATGATGTCGTATTGATGGCTACGACTATTATAATATT
- binding result [17]: binds

B6: pfc0975c (dsDNA)
DNA 1: TTATGATGATACATAAATTACTGATCTTTCTAGGTGCGCTGCTACCATTATCGTGAATAA
DNA 2: TTATTCACGATAATGGTAGCAGCGCACCTAGAAAGATCAGTAATTTATGTATCATCATAA
- binding result [18]: binds

B7: pfc0975c-MUT (dsDNA)
DNA 1: TTATGATGATACATAAATTACTGATCTTTCAAAGTGCGCTGCTACCATTATCGTGAATAA
DNA 2: TTATTCACGATAATGGTAGCAGCGCACTTTGAAAGATCAGTAATTTATGTATCATCATAA
- binding result [18]: no binding

B8: hsp86 (dsDNA)
DNA 1: TTTTAAAAAAAAAAAAAAAGCCCCGCGGAAAGGGGCCATTGGATATATATTTAGTATTCC
DNA 2: GGAATACTAAATATATATCCAATGGCCCCTTTCCGCGGGGCTTTTTTTTTTTTTTTAAAA
- binding result [14]: binds

B9: gbp130 (dsDNA)
DNA 1: AAGCAAATAAGATATTCCAAAAAAAAGTATTCTAATGTGTACTAATAAACCTTTATATAA
DNA 2: TTATATAAAGGTTTATTAGTACACATTAGAATACTTTTTTTTGGAATATCTTATTTGCTT
- binding result [19]: binds
